Results on one protein are retold here after patent US20180087042A1 (OPKO BIOLOGICS, published 2018).

The target in this data set is Factor X, P00742.
Chain of Factor X, P00742 (P00742 whole entry, looked up): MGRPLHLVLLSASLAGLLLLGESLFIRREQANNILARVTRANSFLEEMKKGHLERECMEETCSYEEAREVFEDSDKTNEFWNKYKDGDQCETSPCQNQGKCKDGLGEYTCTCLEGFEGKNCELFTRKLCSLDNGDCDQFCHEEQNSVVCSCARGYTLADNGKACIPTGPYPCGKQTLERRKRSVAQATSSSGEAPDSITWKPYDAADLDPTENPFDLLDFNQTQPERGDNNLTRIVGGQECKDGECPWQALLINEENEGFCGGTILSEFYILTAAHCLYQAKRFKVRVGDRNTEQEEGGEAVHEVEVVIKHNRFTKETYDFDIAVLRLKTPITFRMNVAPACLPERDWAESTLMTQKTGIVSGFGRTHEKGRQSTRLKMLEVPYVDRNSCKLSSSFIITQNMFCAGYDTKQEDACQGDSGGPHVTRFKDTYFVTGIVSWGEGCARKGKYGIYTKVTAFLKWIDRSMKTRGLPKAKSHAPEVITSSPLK

B1: rFVII-CTP (Factor VII-CTP, one CTP at the carboxy terminus) (protein)
chain: AVFVTQEEAHGVLHRRRRANAFLEELRPGSLERECKEEQCSFEEAREIFKDAERTKLFWISYSDGDQCASSPCQNGGSCKDQLQSYICFCLPAFEGRNCETHKDDQLICVNENGGCEQYCSDHTGTKRSCRCHEGYSLLADGVSCTPTVEYPCGKIPILEKRNASKPQGRIVGGKVCPKGECPWQVLLLVNGAQLCGGTLINTIWVVSAAHCFDKIKNWRNLIAVLGEHDLSEHDGDEQSRRVAQVIIPSTYVPGTTNHDIALLRLHQPVVLTDHVVPLCLPERTFSERTLAFVRFSLVSGWGQLLDRGATALELMVLNVPRLMTQDCLQQSRKVGDSPNITEYMFCAGYSDGSKDSCKGDSGGPHATHYRGTWYLTGIVSWGQGCATVGHFGVYTRVSQYIEWLQKLMRSEPRPGVLLRAPFPSSSSKAPPPSLPSPSRLPGPSDTPILPQ
For the protein B1, the “FVII chromogenic activity (AssaySense Human FVII Chromogenic Activity Assay Kit)” value is “The addition of the CTP peptide at the C-terminal of the rFVII protein did not impair the FVII serine protease activity”.
